Assay results from the Human Domainome abundance scans (Beltran et al. 2025).
± gives the uncertainty stated by the source.

B1: Zinc finger homeobox protein 3, residues 2244 to 2299; numbered along this chain, Q15911 (parent)
chain: SSRTRFTDYQLRVLQDFFDANAYPKDDEFEQLSNLLNLPTRVIVVWFQNARQKARK

Variants of: B1
Experiment: abundance fitness (aPCA) (normalised: wild type 0, dead -1); higher = more abundant; growth selection in yeast, the domain comes from the species named
Details: Homo sapiens

Abundance fitness of substitutions, site by site:
T7: A -0.289 ± 0.089 | I -0.586 ± 0.19 | V -0.614 ± 0.094 | G -0.487 ± 0.074 | S -0.186 ± 0.092
R3: M 0.308 ± 0.13 | D 0.505 ± 0.13 | V 0.392 ± 0.089 | A 0.388 ± 0.087 | N 0.43 ± 0.17 | I 0.108 ± 0.19 | L 0.439 ± 0.095 | H 0.368 ± 0.17 | E 0.038 ± 0.11 | W 0.094 ± 0.11 | G 0.281 ± 0.068 | C 0.467 ± 0.13 | F 0.387 ± 0.18 | P 0.17 ± 0.13 | Y 0.301 ± 0.19 | T 0.4 ± 0.13 | S 0.386 ± 0.11
R12: A -0.455 ± 0.081 | Q 0.045 ± 0.1 | C -0.531 ± 0.096 | E -0.422 ± 0.18 | L -0.221 ± 0.065 | D 0.024 ± 0.087 | W -0.504 ± 0.16 | V -0.466 ± 0.079 | S -0.149 ± 0.069 | K 0.169 ± 0.24 | M -0.378 ± 0.12 | P -0.794 ± 0.088 | G -0.238 ± 0.11 | I -0.312 ± 0.076 | T -0.136 ± 0.073 | F -0.738 ± 0.087 | H 0.051 ± 0.066 | N 0.035 ± 0.086 | Y -0.524 ± 0.081
F6: T -0.433 ± 0.09 | V -0.21 ± 0.077 | K -0.408 ± 0.16 | M 0.094 ± 0.11 | N -0.52 ± 0.1 | I -0.164 ± 0.078 | E -0.657 ± 0.21 | R -0.703 ± 0.092 | G -0.633 ± 0.1 | L -0.321 ± 0.067 | Y -0.06 ± 0.093 | C -0.345 ± 0.085 | P -0.774 ± 0.091 | H -0.672 ± 0.1 | A -0.678 ± 0.098
F17: H 0.245 ± 0.19 | C -0.222 ± 0.15 | D -0.876 ± 0.18 | L -0.381 ± 0.1 | A 0.17 ± 0.1 | K 0.011 ± 0.13 | E -0.076 ± 0.12
Y9: T -0.135 ± 0.15 | L -0.216 ± 0.092 | I -0.383 ± 0.22 | P -0.195 ± 0.14 | W -0.217 ± 0.099 | N -0.097 ± 0.16 | E -0.007 ± 0.11 | Q 0.211 ± 0.16 | G -0.063 ± 0.078 | A 0.083 ± 0.1 | M -0.005 ± 0.12 | K 0.162 ± 0.13 | D 0.002 ± 0.16 | H -0.129 ± 0.27 | S 0.053 ± 0.094
V13: M 0.173 ± 0.1 | C -0.276 ± 0.15 | F -0.291 ± 0.19 | W -0.794 ± 0.14 | H -0.178 ± 0.17 | P -0.773 ± 0.13 | S -0.048 ± 0.088 | G -0.339 ± 0.084 | R -0.323 ± 0.088 | Q 0.168 ± 0.12 | L -0.093 ± 0.073 | Y 0.003 ± 0.19 | T -0.116 ± 0.11 | I -0.359 ± 0.24 | E -0.237 ± 0.12 | K 0.008 ± 0.11 | A -0.018 ± 0.099 | N -0.244 ± 0.18 | D -0.692 ± 0.19
Q10: L -0.919 ± 0.15 | I -0.769 ± 0.38 | S -0.445 ± 0.091 | R -0.724 ± 0.093 | P -0.923 ± 0.18 | D -0.631 ± 0.16 | G -0.863 ± 0.08 | W -0.964 ± 0.13 | T -0.714 ± 0.14 | C -0.764 ± 0.17 | N -0.76 ± 0.19 | E -0.59 ± 0.12 | K -0.924 ± 0.17 | F -0.569 ± 0.24 | H -0.563 ± 0.16 | A -0.649 ± 0.092 | M -0.216 ± 0.12
L14: Q -0.549 ± 0.18 | Y -1.05 ± 0.31 | R -0.93 ± 0.1 | E -0.807 ± 0.12 | K -0.948 ± 0.17 | A -0.668 ± 0.12 | G -0.931 ± 0.095 | F -0.768 ± 0.2 | C -0.508 ± 0.15 | W -0.946 ± 0.15 | D -0.825 ± 0.19 | M -0.019 ± 0.11 | P -0.832 ± 0.19 | H -1.24 ± 0.3 | V -0.493 ± 0.091 | S -0.849 ± 0.12 | I -0.108 ± 0.17 | N -0.953 ± 0.25
T4: C -0.632 ± 0.17 | D 0.117 ± 0.21 | W -0.656 ± 0.11 | Q -0.08 ± 0.16 | E -0.357 ± 0.15 | Y -0.198 ± 0.28 | K -0.661 ± 0.15 | R -0.388 ± 0.082 | P -0.154 ± 0.12 | S 0.024 ± 0.093 | V -0.634 ± 0.098 | F 0.03 ± 0.17 | N 0.211 ± 0.22 | H -0.072 ± 0.19 | G -0.394 ± 0.08 | M 0.304 ± 0.13 | A -0.883 ± 0.17 | L -0.116 ± 0.11 | I 0.032 ± 0.19
D16: S -0.023 ± 0.11 | I -0.22 ± 0.25 | A -0.353 ± 0.11 | K -0.179 ± 0.16 | F -0.596 ± 0.26 | H 0.033 ± 0.15 | W -0.714 ± 0.12 | G -0.023 ± 0.077 | C -0.472 ± 0.13 | E -0.129 ± 0.11 | R -0.035 ± 0.082 | T -0.114 ± 0.16 | Y -0.797 ± 0.24 | V -0.344 ± 0.11 | Q -0.035 ± 0.15 | N -0.222 ± 0.19
